Here are results for 40 substances from patent US20170037111A1, “Novel peptides and combination of peptides for use in immunotherapy against ovarian cancer and other cancers” (immatics biotechnologies GmbH, priority 2015, published 2017).

The subject of one assay is CD8+ T cells. Description: In vitro T-cell priming (immunogenicity) with aAPCs loaded with peptide/MHC and anti-CD28, pMHC multimer readout. It is filed as cell-based, human. The following applies: for Wells positive [%]: in vitro immunogenicity, HLA-A*02 restricted peptides, positive wells among evaluable; for donors / wells: in vitro immunogenicity of HLA class I peptides; for donors: percentage of positive donors; for wells: percentage of positive wells. From the text:
In order to obtain information regarding the immunogenicity of the TUMAPs of the present invention, the inventors performed investigations using an in vitro T-cell priming assay based on repeated stimulations of CD8+ T cells with artificial antigen presenting cells (aAPCs) loaded with peptide/MHC complexes and anti-CD28 antibody.
In order to perform in vitro stimulations by artificial antigen presenting cells loaded with peptide-MHC complex (pMHC) and anti-CD28 antibody, the inventors first isolated CD8+ T cells from fresh HLA-A*02 leukapheresis products via positive selection using CD8 microbeads (Miltenyi Biotec, Bergisch-Gladbach, Germany) of healthy donors obtained from the University clinics Mannheim, Germany, after informed consent.
PBMCs and isolated CD8+ lymphocytes were incubated in T-cell medium (TCM) until use consisting of RPMI-Glutamax (Invitrogen, Karlsruhe, Germany) supplemented with 10% heat inactivated human AB serum (PAN-Biotech, Aidenbach, Germany), 100 U/ml Penicillin/100 μg/ml Streptomycin (Cambrex, Cologne, Germany), 1 mM sodium pyruvate (CC Pro, Oberdorla, Germany), 20 μg/ml Gentamycin (Cambrex). 2.5 ng/ml IL-7 (PromoCell, Heidelberg, Germany) and 10 U/ml IL-2 (Novartis Pharma, Nürnberg, Germany) were also added to the TCM at this step.
Generation of pMHC/anti-CD28 coated beads, T-cell stimulations and readout was performed in a highly defined in vitro system using four different pMHC molecules per stimulation condition and 8 different pMHC molecules per readout condition.
The purified co-stimulatory mouse IgG2a anti human CD28 Ab 9.3 (Jung et al., 1987) was chemically biotinylated using Sulfo-N-hydroxysuccinimidobiotin as recommended by the manufacturer (Perbio, Bonn, Germany). Beads used were 5.6 μm diameter streptavidin coated polystyrene particles (Bangs Laboratories, Illinois, USA).
pMHC used for positive and negative control stimulations were A*0201/MLA-001 (peptide […] (SEQ ID NO. 664) from modified Melan-A/MART-1) and A*0201/DDX5-001 ([…] from DDX5, SEQ ID NO. 665), respectively.
800.000 beads/200 μl were coated in 96-well plates in the presence of 4×12.5 ng different biotin-pMHC, washed and 600 ng biotin anti-CD28 were added subsequently in a volume of 200 μl. Stimulations were initiated in 96-well plates by co-incubating 1×10^6 CD8+ T cells with 2×10^5 washed coated beads in 200 μl TCM supplemented with 5 ng/ml IL-12 (PromoCell) for 3 days at 37° C. Half of the medium was then exchanged by fresh TCM supplemented with 80 U/ml IL-2 and incubating was continued for 4 days at 37° C. This stimulation cycle was performed for a total of three times. For the pMHC multimer readout using 8 different pMHC molecules per condition, a two-dimensional combinatorial coding approach was used as previously described (Andersen et al., 2012) with minor modifications encompassing coupling to 5 different fluorochromes. Finally, multimeric analyses were performed by staining the cells with Live/dead near IR dye (Invitrogen, Karlsruhe, Germany), CD8-FITC antibody clone SK1 (BD, Heidelberg, Germany) and fluorescent pMHC multimers. For analysis, a BD LSRII SORP cytometer equipped with appropriate lasers and filters was used. Peptide specific cells were calculated as percentage of total CD8+ cells. Evaluation of multimeric analysis was done using the FlowJo software (Tree Star, Oregon, USA). In vitro priming of specific multimer+CD8+ lymphocytes was detected by comparing to negative control stimulations.
Exemplary flow cytometry results after TUMAP-specific multimer staining for two peptides of the invention are shown in FIG. 3 together with corresponding negative controls.

Another assay deals with HLA-A*02:01 (Homo sapiens, UniProt P04439, D140Y/D185E/D98H/E176V/E277Q/G131W/G231S/I119V/I121R/I166T/I218V/L300P/L318F/N151K/N90K/P208A/P217A/Q86G/Q94H/R138H/R169H/T345S). Nature of the assay: MHC binding assay (UV-ligand exchange, β2m ELISA, peptide exchange yield). To be noted: MHC class I binding score; binding to HLA-A*02:01 ranged by peptide exchange yield (UV-ligand exchange, β2m ELISA). The essentials:
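Binding is expressed as peptide exchange yield: stabilized MHC complexes were quantified by β2m ELISA, with a 450 nm TMB read-out on streptavidin-coated plates. Complexes came from UV-ligand exchange, where UV irradiation cleaves a photolabile peptide so the candidate peptide can load.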
A general note: ELISA stands for enzyme-linked immunosorbent assay.

As for “460 (AMLEKNYKL; listed as Homo sapiens) [compound 460]”, in the assay on CD8+ T cells, the “Wells positive [%]” value is reported as “″+″ (<20% = +)”. Moreover, the Peptide exchange result with HLA-A*02:01 is recorded as “″++++″ (≧75% = ++++)”. For “511 (FLDPYCSASV; listed as Homo sapiens) [compound 511]” the same measures were “″+″ (<20% = +)” and “″++″ (≧20% = ++)”. As for “108 (ALFPGVALLLA; listed as Homo sapiens) [compound 108]”, the “Wells positive [%]” value in the assay with CD8+ T cells was “″++″ (20%-49% = ++)”. Besides, the Peptide exchange entry with HLA-A*02:01 is “″++++″ (≧75% = ++++)”. For “11 (KIFEMLEGV; listed as Homo sapiens) [compound 11]” the same measures were “″+″ (<20% = +)” and “″+++″ (≧50% = +++)”. For the substance “61 (FLQGYQLHL; listed as Homo sapiens) [compound 61]”, the “Wells positive [%]” value with CD8+ T cells was “″++″ (20%-49% = ++)”. For the same substance, the Peptide exchange entry in the assay with HLA-A*02:01 was “″++++″ (≧75% = ++++)”. The matching figures for “166 (YLNHLEPPV; listed as Homo sapiens) [compound 166]”: “″++++″ (> = 70% = ++++)” and “″+++″ (≧50% = +++)”. With “659 (ILFPDIIARA; listed as Homo sapiens) [compound 659]”, in the assay with CD8+ T cells, the donors result was “+++ (50%-69% = +++)” and the wells entry is given as “+ (<20% = +)”.

As to “662 (KIQEILTQV; listed as Homo sapiens) [compound 662]”, in the assay on CD8+ T cells, the donors entry is “+++ (50%-69% = +++)” and the wells entry is given as “+ (<20% = +)”. “3 (SLASKLTTL; listed as Homo sapiens) [compound 3]”: the “Wells positive [%]” value in the assay with CD8+ T cells is reported as “″+″ (<20% = +)”. In addition, the Peptide exchange result with HLA-A*02:01 is given as “″++++″ (≧75% = ++++)”. The matching figures for “17 (GLLPGDRLVSV; listed as Homo sapiens) [compound 17]”: “″++″ (20%-49% = ++)” and “″+++″ (≧50% = +++)”.

As for “603 (FLIEPEHVNTV; listed as Homo sapiens) [compound 603]”, in the assay on CD8+ T cells, the “Wells positive [%]” value is “″+″ (<20% = +)”. The Peptide exchange result with HLA-A*02:01 is on record as “″++″ (≧20% = ++)”. Take “79 (SLFIGEKAVLL; listed as Homo sapiens) [compound 79]”: in the assay on CD8+ T cells, the “Wells positive [%]” value was “″+″ (<20% = +)”. Moreover, in the assay with HLA-A*02:01, the Peptide exchange result was “″+++″ (≧50% = +++)”. Take “60 (SLTIDGIYYV; listed as Homo sapiens) [compound 60]”: in the assay with CD8+ T cells, the “Wells positive [%]” value is recorded as “″++++″ (> = 70% = ++++)”. In addition, in the assay with HLA-A*02:01, the Peptide exchange entry is “″++++″ (≧75% = ++++)”. On to “663 (KIQEMQHFL; listed as Homo sapiens) [compound 663]”, for which, in the assay with CD8+ T cells, the donors result is on record as “+++ (50%-69% = +++)” and the wells entry is reported as “+ (<20% = +)”. As to “150 (RLWEEGEELEL; listed as Homo sapiens) [compound 150]”, the “Wells positive [%]” value with CD8+ T cells is listed as “″+″ (<20% = +)”. For the same substance, the Peptide exchange entry with HLA-A*02:01 was “″+++″ (≧50% = +++)”. As for “215 (QLINHLHAV; listed as Homo sapiens) [compound 215]”, in the assay on CD8+ T cells, the “Wells positive [%]” value is on record as “″++″ (20%-49% = ++)”. Besides, the Peptide exchange entry with HLA-A*02:01 is given as “″+++″ (≧50% = +++)”. Take “489 (KMWEELPEVV; listed as Homo sapiens) [compound 489]”: the “Wells positive [%]” value with CD8+ T cells is given as “″+″ (<20% = +)”. Moreover, in the assay with HLA-A*02:01, the Peptide exchange result is recorded as “″+++″ (≧50% = +++)”.

Consider “198 (KTINKVPTV; listed as Homo sapiens) [compound 198]”, for which the “Wells positive [%]” value in the assay on CD8+ T cells was “″++″ (20%-49% = ++)”. Also, the Peptide exchange entry with HLA-A*02:01 is “″+++″ (≧50% = +++)”. Regarding “5 (HLTEVYPEL; listed as Homo sapiens) [compound 5]”, the “Wells positive [%]” value in the assay with CD8+ T cells is reported as “″+++″ (50%-69% = +++)”. Also, in the assay with HLA-A*02:01, the Peptide exchange result is reported as “″+++″ (≧50% = +++)”.

For “463 (SLVESHLSDQLTL; listed as Homo sapiens) [compound 463]”, the “Wells positive [%]” value in the assay on CD8+ T cells was “″++″ (20%-49% = ++)”. Also, the Peptide exchange entry in the assay with HLA-A*02:01 is recorded as “″+++″ (≧50% = +++)”. For “48 (ALAELYEDEV; listed as Homo sapiens) [compound 48]” the same measures were “″+″ (<20% = +)” and “″+++″ (≧50% = +++)”. Turning to “648 (LLWGNAIFL; listed as Homo sapiens) [compound 648]”, in the assay on CD8+ T cells, the donors result is reported as “+++ (50%-69% = +++)”. For “40 (TLLVKVFSV; listed as Homo sapiens) [compound 40]”, in the assay on CD8+ T cells, the “Wells positive [%]” value is on record as “″++″ (20%-49% = ++)”. For the same substance, in the assay with HLA-A*02:01, the Peptide exchange result was “″+++″ (≧50% = +++)”. The matching figures for “19 (FMVDNEAIYDI; listed as Homo sapiens) [compound 19]”: “″++″ (20%-49% = ++)” and “″++++″ (≧75% = ++++)”.

With “319 (SLEPQIQPV; listed as Homo sapiens) [compound 319]”, the “Wells positive [%]” value with CD8+ T cells is “″+″ (<20% = +)”. The Peptide exchange entry in the assay with HLA-A*02:01 is reported as “″++″ (≧20% = ++)”. In the case of “38 (FLLEDDIHVS; listed as Homo sapiens) [compound 38]”, the “Wells positive [%]” value with CD8+ T cells was “″+″ (<20% = +)”. Also, the Peptide exchange entry in the assay with HLA-A*02:01 is “″+++″ (≧50% = +++)”.

Take “395 (ALALGGIAVV; listed as Homo sapiens) [compound 395]”: in the assay on CD8+ T cells, the “Wells positive [%]” value is “″+++″ (50%-69% = +++)”. In addition, the Peptide exchange result in the assay with HLA-A*02:01 is listed as “″++++″ (≧75% = ++++)”.

Regarding “143 (LLLDITPEI; listed as Homo sapiens) [compound 143]”, in the assay with CD8+ T cells, the “Wells positive [%]” value is “″+″ (<20% = +)”. Further, in the assay with HLA-A*02:01, the Peptide exchange result is “″++++″ (≧75% = ++++)”. For the substance “118 (KLIDNNINV; listed as Homo sapiens) [compound 118]”, the “Wells positive [%]” value with CD8+ T cells was “″+″ (<20% = +)”. Also, the Peptide exchange entry with HLA-A*02:01 was “″+++″ (≧50% = +++)”. Turning to “652 (TLWYRAPEV; listed as Homo sapiens) [compound 652]”, in the assay with CD8+ T cells, the donors entry is on record as “++++ (> = 70% = ++++)” and the wells result is “+++ (50%-69% = +++)”.

For the substance “265 (LLFGGTKTV; listed as Homo sapiens) [compound 265]”, the Peptide exchange result with HLA-A*02:01 was “″++″ (≧20% = ++)”. On the same count and under the same terms, the entry for “193 (QLLDADGFLNV; listed as Homo sapiens) [compound 193]” is “″+++″ (≧50% = +++)”; for “111 (YVWGFYPAEV; listed as Homo sapiens) [compound 111]” it is “″+++″ (≧50% = +++)”; for “72 (SLLELDGINL; listed as Homo sapiens) [compound 72]” it is “″+++″ (≧50% = +++)”. On the same count and under the same terms, then “521 (MLLTKLPTI; listed as Homo sapiens) [compound 521]”, with “″+++″ (≧50% = +++)”; and “175 (YLFENISQL; listed as Homo sapiens) [compound 175]”, with “″+++″ (≧50% = +++)”. Same read-out and setting: then “523 (YQIPRTFTL; listed as Homo sapiens) [compound 523]”, with “″++″ (≧20% = ++)”; and “305 (SIANFSEFYV; listed as Homo sapiens) [compound 305]”, with “″++++″ (≧75% = ++++)”. In the case of “123 (NLWDLTDASVV; listed as Homo sapiens) [compound 123]”, in the assay with HLA-A*02:01, the Peptide exchange result was “″+++″ (≧50% = +++)”. As to “282 (LLADVVPTT; listed as Homo sapiens) [compound 282]”, the Peptide exchange entry with HLA-A*02:01 is “″+++″ (≧50% = +++)”.
